We go through twelve variants from FireProtDB (doi:10.1093/protein/gzw068).

The Tm is the temperature at the midpoint of the melting transition.

B1: S17A, Q93D82 (parent)
chain: MSTAIVTNVKHFGGMGSALRLSEAGHTVACHDESFKQKDELEAFAETYPQLKPMSEQEPAELIEAVTSAYGQVDVLVSNDIFAPEFQPIDKYAVEDYRGAVEALQIRPFALVNAVASQMKKRKSGHIIFITSATPFGPWKELSTYTSARAGACTLANALSKELGEYNIPVFAIGPNYLHSEDSPYFYPTEPWKTNPEHVAHVKKVTALQRLGTQKELGELVAFLASGSCDYLTGQVFWLAGGFPMIERWPGMPE

The variants in the data set derive from B1. The following applies: Rhizobium radiobacter; pH 7.7; Thermal; CD; Phosphate 5mM; structure 1PWX; whole UniProt chain shown.

Consider MSTAIVTNVKHFGGMGAALRLSEAGHTVACHDESFKQKDELEAFAETYPQLKPMSEQEPAELIEAVTSAYGQVDVLVSNDIFAPEFQPIDKYAVEDYRGAVEALQIRPFALVNAVASQMKKRKSGHIIFITSATPFGPWKELSTYTSARAGACTLANALSKELGEYNIPVFAIGPNYLHSEDSPYFYPTEPWKTNPEHVAHVKKVTALQRLGTQKELGELVAFLASGSCDYLTGQVFWLAGGFPMIERWPGMPE [S17A], for which the midpoint of thermal melting (Tm) stood at 65 °C and the “change of melting temperature, mutant - wild type (higher = more stable)” value (“change of melting temperature, mutant” for short) was 0 °C.
For the variant MSTAIVTNVKHFGGMGSALRLSEAGHTVACHDESFKEKDELEAFAETYPQLKPMSEQEPAELIEAVTSAYGQVDVLVSNDIFAPEFQPIDKYAVEDYRGAVEALQIRPFALVNAVASQMKKRKSGHIIFITSATPFGPWKELSTYTSARAGACTLANALSKELGEYNIPVFAIGPNYLHSEDSPYFYPTEPWKTNPEHVAHVKKVTALQRLGTQKELGELVAFLASGSCDYLTGQVFWLAGGFPMIERWPGMPE [Q37E], the midpoint of thermal melting (Tm) worked out at 65 °C and the “change of melting temperature, mutant” value is 0 °C.
Turning to MSTAIVTNVKHFGGMGSALRLSEAGHTVACHDESFKDKDELEAFAETYPQLKPMSEQEPAELIEAVTSAYGQVDVLVSNDIFAPEFQPIDKYAVEDYRGAVEALQIRPFALVNAVASQMKKRKSGHIIFITSATPFGPWKELSTYTSARAGACTLANALSKELGEYNIPVFAIGPNYLHSEDSPYFYPTEPWKTNPEHVAHVKKVTALQRLGTQKELGELVAFLASGSCDYLTGQVFWLAGGFPMIERWPGMPE [Q37D], the Tm came to 65 °C and the “change of melting temperature, mutant” value stood at 0 °C.
The corresponding values for MSTAIVTNVKHFGGMGSALRLSEAGMTVACHDESFKQKDELEAFAETYPQLKPMSEQEPAELIEAVTSAYGQVDVLVSNDIFAPEFQPIDKYAVEDYRGAVEALQIRPFALVNAVASQMKKRKSGHIIFITSATPFGPWKELSTYTSARAGACTLANALSKELGEYNIPVFAIGPNYLHSEDSPYFYPTEPWKTNPEHVAHVKKVTALQRLGTQKELGELVAFLASGSCDYLTGQVFWLAGGFPMIERWPGMPE [H26M] are 64.5 °C and -0.5 °C.
For MSTAIVFNVKHFGGMGSALRLSEAGHTVACHDESFKQKDELEAFAETYPQLKPMSEQEPAELIEAVTSAYGQVDVLVSNDIFAPEFQPIDKYAVEDYRGAVEALQIRPFALVNAVASQMKKRKSGHIIFITSATPFGPWKELSTYTSARAGACTLANALSKELGEYNIPVFAIGPNYLHSEDSPYFYPTEPWKTNPEHVAHVKKVTALQRLGTQKELGELVAFLASGSCDYLTGQVFWLAGGFPMIERWPGMPE [T7F], the midpoint of thermal melting (Tm) was 65 °C and the “change of melting temperature, mutant” value amounted to 0 °C.
As for MSTAIVMNVKHFGGMGSALRLSEAGHTVACHDESFKQKDELEAFAETYPQLKPMSEQEPAELIEAVTSAYGQVDVLVSNDIFAPEFQPIDKYAVEDYRGAVEALQIRPFALVNAVASQMKKRKSGHIIFITSATPFGPWKELSTYTSARAGACTLANALSKELGEYNIPVFAIGPNYLHSEDSPYFYPTEPWKTNPEHVAHVKKVTALQRLGTQKELGELVAFLASGSCDYLTGQVFWLAGGFPMIERWPGMPE [T7M], the midpoint of thermal melting (Tm) came to 65 °C and the “change of melting temperature, mutant” value turned out to be 0 °C.
For the variant MSTAIVTNVKHFGGMGSALRLSEAGHTVACHDESFKQKDELQAFAETYPQLKPMSEQEPAELIEAVTSAYGQVDVLVSNDIFAPEFQPIDKYAVEDYRGAVEALQIRPFALVNAVASQMKKRKSGHIIFITSATPFGPWKELSTYTSARAGACTLANALSKELGEYNIPVFAIGPNYLHSEDSPYFYPTEPWKTNPEHVAHVKKVTALQRLGTQKELGELVAFLASGSCDYLTGQVFWLAGGFPMIERWPGMPE [E42Q], the Tm was found to be 64 °C and the “change of melting temperature, mutant” value is -1 °C.
Take MSTAIVTNVKHFGGMGSALRLSEAGHTVACHDESFKQKDELMAFAETYPQLKPMSEQEPAELIEAVTSAYGQVDVLVSNDIFAPEFQPIDKYAVEDYRGAVEALQIRPFALVNAVASQMKKRKSGHIIFITSATPFGPWKELSTYTSARAGACTLANALSKELGEYNIPVFAIGPNYLHSEDSPYFYPTEPWKTNPEHVAHVKKVTALQRLGTQKELGELVAFLASGSCDYLTGQVFWLAGGFPMIERWPGMPE [E42M]: the Tm is 66.5 °C and the “change of melting temperature, mutant” value is 1.5 °C.
The corresponding values for MSTAIVTNVKHFGGMGSALRLSEAGHTVACHDESFKQKDELEAFAEAYPQLKPMSEQEPAELIEAVTSAYGQVDVLVSNDIFAPEFQPIDKYAVEDYRGAVEALQIRPFALVNAVASQMKKRKSGHIIFITSATPFGPWKELSTYTSARAGACTLANALSKELGEYNIPVFAIGPNYLHSEDSPYFYPTEPWKTNPEHVAHVKKVTALQRLGTQKELGELVAFLASGSCDYLTGQVFWLAGGFPMIERWPGMPE [T47A] are 63 °C and -2 °C.
Turning to MSTAIVTNVKHFGGMGSALRLSEAGHTVACHDESFKQKDELEAFAEKYPQLKPMSEQEPAELIEAVTSAYGQVDVLVSNDIFAPEFQPIDKYAVEDYRGAVEALQIRPFALVNAVASQMKKRKSGHIIFITSATPFGPWKELSTYTSARAGACTLANALSKELGEYNIPVFAIGPNYLHSEDSPYFYPTEPWKTNPEHVAHVKKVTALQRLGTQKELGELVAFLASGSCDYLTGQVFWLAGGFPMIERWPGMPE [T47K], the Tm stood at 66 °C and the “change of melting temperature, mutant” value was determined as 1 °C.
Consider MSTAIVTNVKHFGGMGSALRLSEAGHTVACHDESFKQKDELEAFAEHYPQLKPMSEQEPAELIEAVTSAYGQVDVLVSNDIFAPEFQPIDKYAVEDYRGAVEALQIRPFALVNAVASQMKKRKSGHIIFITSATPFGPWKELSTYTSARAGACTLANALSKELGEYNIPVFAIGPNYLHSEDSPYFYPTEPWKTNPEHVAHVKKVTALQRLGTQKELGELVAFLASGSCDYLTGQVFWLAGGFPMIERWPGMPE [T47H], for which the Tm was determined as 63.5 °C and the “change of melting temperature, mutant” value is -1.5 °C.
The matching figures for MSTAIVTNVKHFGGMGSALRLSEAGHTVACHDPSFKQKDELEAFAETYPQLKPMSEQEPAELIEAVTSAYGQVDVLVSNDIFAPEFQPIDKYAVEDYRGAVEALQIRPFALVNAVASQMKKRKSGHIIFITSATPFGPWKELSTYTSARAGACTLANALSKELGEYNIPVFAIGPNYLHSEDSPYFYPTEPWKTNPEHVAHVKKVTALQRLGTQKELGELVAFLASGSCDYLTGQVFWLAGGFPMIERWPGMPE [E33P]: 64.5 °C and -0.5 °C.
